Results taken from patent US20160138042A1 (COMMONWEALTH SCIENTIFIC AND INDUSTRIAL RESEARCH ORGANISATION, published 2016).

B1: Sr33 CC1-125 (truncated portion of the CC domain of Sr33) (other)
chain: MDIVTGAIAKLIPKLGELLVGEYKLHKGVKKNIEDLLKELKTMNAALIKIGEVPPDQLDSQDKLWADEVRELSYVIEDAVDKFLVRVHGVEPDDNTNGFKGLMKRTTKLLKKVVDKHGIAHAIKD
notes: Expressed as both bait and prey in yeast two-hybrid; The fused GAL4 domains are not included; also called Sr33 CC125
B2: Sr33 CC1-225 (CC-NB domain of Sr33) (other)
chain: MDIVTGAIAKLIPKLGELLVGEYKLHKGVKKNIEDLLKELKTMNAALIKIGEVPPDQLDSQDKLWADEVRELSYVIEDAVDKFLVRVHGVEPDDNTNGFKGLMKRTTKLLKKVVDKHGIAHAIKDIKKELQEVAARRDRNKFDGIASIPTEAIDPRLRALYIEAAELVGIYGKRDQELMSLLSLEGDDASTKKLKKVSIVGFGGLGKTTLAKAVYEKIKGDFDCH
notes: Expressed as both bait and prey in yeast two-hybrid; The fused GAL4 domains are not included; also called Sr33 CC225

Target: the molecule itself
Test: directed yeast two-hybrid, self-association (same fragment as bait and prey)

Protein | binding result
B1 | no binding
B2 | no binding
